Source: PMC7218104, “Consensus Design of an Evolved High-Redox Potential Laccase” (Frontiers in Bioengineering and Biotechnology, 2020)

Experiments:
Assay in all cases: purified protein
Conditions in all cases: sodium phosphate/citrate buffer 100 mM, pH 4.0
purified protein [1] = substrate: COc1ccccc1O
purified protein [2] = substrate: CCn1c(=NN=c2sc3cc(S(=O)(=O)O)ccc3n2CC)sc2cc(S(=O)(=O)O)ccc21; type: biochemical, basidiomycete PM1
purified protein [3] = substrate: COc1cccc(OC)c1O; type: biochemical, basidiomycete PM1
purified protein [4] = substrate: COc1cc(/C=C/C(=O)O)cc(OC)c1O; type: biochemical, basidiomycete PM1

| Protein | Km (purified protein [1]) | kcat (purified protein [1]) | kcat/Km (purified protein [1]) | Km (purified protein [2]) | kcat (purified protein [2]) | kcat/Km (purified protein [2]) | Km (purified protein [3]) | kcat (purified protein [3]) | kcat/Km (purified protein [3]) | Km (purified protein [4]) | kcat (purified protein [4]) | kcat/Km (purified protein [4]) |
| --- | --- | --- | --- | --- | --- | --- | --- | --- | --- | --- | --- | --- |
| OB-1 laccase (evolved variant of PM1 laccase, PM1Lac) (basidiomycete PM1; A260P/A482T/D302E/H229Y/S245G/S447N/V183A) (protein, mature laccase secreted from S. cerevisiae BJ5465 (pJRoC30) with evolved alpha-factor prepro-leader carrying V[alpha10]D, N[alpha23]K, A[alpha87]T; purified to homogeneity) SIGPVADLTISNGAVSPDGFSRQAILVNDVFPSPLITGNKGDRFQLNVIDNMTNHTMLKSTSIHWHGFFQHGTNWADGPAFVNQCPISTGHAFLYDFQVPDQAGTFWYHSHLSTQYCDGLRGPIVVYDPQDPHKSLYDVDDDSTVITLADWYHLAAKVGPAAPTADATLINGLGRSINTLNADLAVITVTKGKRYRFRLVSLSCDPNYTFSIDGHSLTVIEADGVNLKPQTVDSIQIFPAQRYSFVLNADQDVDNYWIRALPNSGTRNFDGGVNSAILRYEGAAPVEPTTTQTPSTQPLVESALTTLEGTAAPGNPTPGGVDLALNMAFGFAGGRFTINGASFTPPTVPVLLQILSGAQSAQDLLPSGSVYSLPANADIEISLPATSAAPGFPHPFHLHGHTFAVVRSAGSSTYNYANPVYRDVVNTGSPGDNVTIRFRTDNPGPWFLHCHIDFHLEAGFTVVMAEDIPDVAATNPVPQAWSDLCPTYDALSPDDQ | 2.6 ± 0.4 mM | 117 s⁻¹ | 44600 M⁻¹ s⁻¹ | 7 ± 0.6 µM | 690 ± 20.2 s⁻¹ | 1.06e+08 M⁻¹ s⁻¹ | 0.15 ± 0.01 mM | 565 ± 13 s⁻¹ | 3.84e+06 M⁻¹ s⁻¹ | 0.32 ± 0.02 mM | 741 ± 14.1 s⁻¹ | 2.29e+06 M⁻¹ s⁻¹ |
| OB-1 laccase (evolved variant of PM1 laccase, PM1Lac) (basidiomycete PM1; A260P/A261G/A482T/D302E/H229Y/S245G/S447N/V183A) (protein, mature laccase secreted from S. cerevisiae BJ5465 (pJRoC30) with evolved alpha-factor prepro-leader carrying V[alpha10]D, N[alpha23]K, A[alpha87]T; purified to homogeneity) SIGPVADLTISNGAVSPDGFSRQAILVNDVFPSPLITGNKGDRFQLNVIDNMTNHTMLKSTSIHWHGFFQHGTNWADGPAFVNQCPISTGHAFLYDFQVPDQAGTFWYHSHLSTQYCDGLRGPIVVYDPQDPHKSLYDVDDDSTVITLADWYHLAAKVGPAAPTADATLINGLGRSINTLNADLAVITVTKGKRYRFRLVSLSCDPNYTFSIDGHSLTVIEADGVNLKPQTVDSIQIFPGQRYSFVLNADQDVDNYWIRALPNSGTRNFDGGVNSAILRYEGAAPVEPTTTQTPSTQPLVESALTTLEGTAAPGNPTPGGVDLALNMAFGFAGGRFTINGASFTPPTVPVLLQILSGAQSAQDLLPSGSVYSLPANADIEISLPATSAAPGFPHPFHLHGHTFAVVRSAGSSTYNYANPVYRDVVNTGSPGDNVTIRFRTDNPGPWFLHCHIDFHLEAGFTVVMAEDIPDVAATNPVPQAWSDLCPTYDALSPDDQ | 3.4 ± 0.4 mM | 171 s⁻¹ | 50300 M⁻¹ s⁻¹ | 9 ± 0.9 µM | 1330 ± 42.3 s⁻¹ | 1.4e+08 M⁻¹ s⁻¹ | 0.23 ± 0.01 mM | 1130 ± 18.4 s⁻¹ | 5.56e+06 M⁻¹ s⁻¹ | 0.45 ± 0.06 mM | 1430 ± 65.2 s⁻¹ | 3.18e+06 M⁻¹ s⁻¹ |
